Results as given in article PMC5555194.

Molecular target: C3d (human), P01024
Assay: SPR; C3d amine-coupled to a different flow cell of the same C1 chip; CFH (from 2.5 to 0.019 uM), or 0.6 uM CFH premixed with 1.2 uM PspCN, flowed over; equilibrium plots
Details: remark: other sources report otherwise

C3d (human), P01024, sequence (P01024 1002-1303): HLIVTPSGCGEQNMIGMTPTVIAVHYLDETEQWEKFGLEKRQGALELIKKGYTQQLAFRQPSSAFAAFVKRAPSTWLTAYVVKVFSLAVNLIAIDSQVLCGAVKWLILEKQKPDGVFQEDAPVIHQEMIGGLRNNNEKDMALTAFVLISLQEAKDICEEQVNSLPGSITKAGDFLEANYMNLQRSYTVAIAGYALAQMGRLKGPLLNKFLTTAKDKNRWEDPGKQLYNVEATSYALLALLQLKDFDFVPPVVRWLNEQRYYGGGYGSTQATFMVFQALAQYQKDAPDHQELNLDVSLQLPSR

Kd: 2100 nM
B1: V62-CFH (recombinant human complement factor H, variant Val-62, Tyr-402, Glu-936), P08603 19-1231 (natural protein)
chain: EDCNELPPRRNTEILTGSWSDQTYPEGTQAIYKCRPGYRSLGNVIMVCRKGEWVALNPLRKCQKRPCGHPGDTPFGTFTLTGGNVFEYGVKAVYTCNEGYQLLGEINYRECDTDGWTNDIPICEVVKCLPVTAPENGKIVSSAMEPDREYHFGQAVRFVCNSGYKIEGDEEMHCSDDGFWSKEKPKCVEISCKSPDVINGSPISQKIIYKENERFQYKCNMGYEYSERGDAVCTESGWRPLPSCEEKSCDNPYIPNGDYSPLRIKHRTGDEITYQCRNGFYPATRGNTAKCTSTGWIPAPRCTLKPCDYPDIKHGGLYHENMRRPYFPVAVGKYYSYYCDEHFETPSGSYWDHIHCTQDGWSPAVPCLRKCYFPYLENGYNQNYGRKFVQGKSIDVACHPGYALPKAQTTVTCMENGWSPTPRCIRVKTCSKSSIDIENGFISESQYTYALKEKAKYQCKLGYVTADGETSGSITCGKDGWSAQPTCIKSCDIPVFMNARTKNDFTWFKLNDTLDYECHDGYESNTGSTTGSIVCGYNGWSDLPICYERECELPKIDVHLVPDRKKDQYKVGEVLKFSCKPGFTIVGPNSVQCYHFGLSPDLPICKEQVQSCGPPPELLNGNVKEKTKEEYGHSEVVEYYCNPRFLMKGPNKIQCVDGEWTTLPVCIVEESTCGDIPELEHGWAQLSSPPYYYGDSVEFNCSESFTMIGHRSITCIHGVWTQLPQCVAIDKLKKCKSSNLIILEEHLKNKKEFDHNSNIRYRCRGKEGWIHTVCINGRWDPEVNCSMAQIQLCPPPPQIPNSHNMTTTLNYRDGEKVSVLCQENYLIQEGEEITCKDGRWQSIPLCVEKIPCSQPPQIEHGTINSSRSSQESYAHGTKLSYTCEGGFRISEENETTCYMGKWSSPPQCEGLPCKSPPEISHGVVAHMSDSYQYGEEVTYKCFEGFGIDGPAIAKCLGEKWSHPPSCIKTDCLSLPSFENAIPMGEKKDVYKAGEQVTYTCATYYKMDGASNVTCINSRWTGRPTCRDTSCVNPPTVQNAYIVSRQMSKYPSGERVRYQCRSPYEMFGDEEVMCLNGNWTEPPQCKDSTGKCGPPPPIDNGDITSFPLSVYAPASSVEYQCQNLYQLEGNKRITCRNGQWSEPPKCLHPCVISREIMENYNIALRWTAKQKLYSRTGESVEFVCKRGYRLSSRSHTLRTTCWDGKLEYPTCAKR
modifications: here or on the partner: N-glycans trimmed to the first GlcNAc residues (EndoHf)
